Experimental data reported in the DeepSol protein solubility set.

Experiment: soluble on expression in E. coli; label from the status in PepcDB or PDB records

Sequence	soluble on expression in E. coli
MAFDGLFTRAITHEIANSLYTGRISKIYQPSKYEILLHIRANGKNQKLILSAHPTYARLHLTNQNYDSPALPPMFCMLLRKHLEGGFIEKIEQIDLERIIQITVRSRNEIGDESLKTLVIEIMGRHSNIILVDTKTNNILDSLKHVSLAVNRHRTVYAGAEYIAPPVQHKINPLQIETNDEFIRPLDFLSGNMDKQLVGTFTGISPLFAKEVVKKAGMVNEKALADAFFSIQKPLLTHTYSPTMTTSNGKEFFYLFPLAHLAGENKTFSSVSELLDRFFFGKAERDRVKQQAHDLERFMQNEKNKNEKKLIKLEKTLQDAGKADKYQLFGELLTANMYALKKGDKDIEVVNYYDENGGTVKIALDPLKTPSENAQRYFQKYQKAKNSIVVVEEQIEKTKEEILYFDSLLQQMEAASSKDIEEIREELAEEGYMRNRKTKNAKKKPTKPVLDKYVASDGTEIFVGKNNKQNDYLTTKFARRDEIWLHTKDIPGSHVVIRSLEPAEETLLEAAKIAAYYSKAKESSSVPVDFTKIRHVKKPSGAKLGFVTYDNQQTVYVTPDADTVMKLKA	not soluble
GMASSGTEHDAMRARLVDVAQAIVEERGGAGLTLSELAARAGISQANLSRYFETREDLMEAIADYWFHPMVEIMEDVLASDLPPRRKMYEFFARRFVVMRRKWEADPVKLQTYIEVGNDYFEQVRSYIDLADHYLGEIIGEAMSDGAFSGLEVDETISLVNQMCAPYCALNTMTTFMERLSEDKLARIVDAVFDGLSAQDRGARSLTGLRAA	soluble
MHIRTTTPVLTSLTSCNFGTASLGDTSPYCMALRPFPLGNTPLHAVIRRSAREFECVEAVPASNAVRSPSTASWVSAESLDSIISLANRTSEEMEVDQLIYRLCRSLYHVAKKKSAQIHCHPNHQERQQQQQQASSSGWRSVECEGHFSNMRGREDWCPLLHLFDPRSYYKVMGQPSQHDGCKLCGDVVGTESSPEGVSQWLMSELSVTRLTGGNSNHVYRLGHASFPKKAVLLRVYGDGGGGDVIDRARDIKVMRLMSKSEMGPGLLHTFHWGRVEEFMDGVLTCTTEKLLTSPSLLADVYGGLSKMHQLDYTPLLPENMRTKGMSNGHNSSQSVSDTVSKSGGGQEGPDGTVGGVNELESTCHTSFERVCLRLLRLVSLNVVEEHRHSLESWLAGEVMFVRRELQYRGIPVVLSHNDLNPGNILLSDGAGEASGTVFSDEELRVENTPLSKRYVTRKGKNMNLVERRGFLFIDFEYADANYRCFDLGNTLCELDYDYTRGTEAGGRGFIKYLFVFPPPAMEEAWRGLGEEYPRMPELIYDAWRRGVCDGSSDIGSVALLAVRRYFAERDNVPLETVELSEAQVGEVLLGMLASHLYWTIWSMTMGSAPDNCVECEDCDDQMFAVGGSGLDYMRYGECRLREYIALRGWLAEKGLLS	not soluble
MTIDMRLRPPLQSWKSTAQFKEGTAYYPTRYGFPRPKSVGTQDIGDLLAEMDEADITWGVVMGRQSAPPHGIVPNEEISDFVRQHADRFVGFAGIDLRDIDKAVADLDGYARSDEFKGISIEPGAGFVPLYSDDPSLFPLYERAQELQLPLSITLSGYLSSMAGHPTSYGNPSPVATVARKFPRLKIVVSHAAWPNVMPMLEVAFLHDNVYVSPDLYMNHVHTPGAHEYINAAKFYLADRLLFGTAYPSRPLKESVAGFRQWDLDSELAEKILHRNAARLLGLELEHHHHHH	not soluble
MSLTGKKIETHLEDMVAQANAQLKLTAPESNLEVSYQNYHRGVFSSQLQLLVKPIAGKENPWIKSGQSVIFNESVDHGPFPLAQLKKLNLIPSMASIQTTLVNNEVSKPLFDMAKGETPFEINSRIGYSGDSSSDISLKPLNYEQKDEKVAFSGGEFQLNADRDAKPSPFPGRRKVVRIDAVNEYNQKVQLTFNNLKTDGSSTLASFGERVGNQKLSLEKMTISVEGKELALLEGMEISGKSDLVNDGKTINSQLDYSLNSLKVQNQDLGSGKLTLKVGQIDGEAWHQFSQQYNAQTQALSRQPEIANNPELYQEKVTEAFFSALPLMLKGDPVITIAPLSWKNSQGESALNLSLFLKDPATTKEAPQTLAQEVDRSVKSLDAKLTIPVDMATEFMTQVARKVIRKIKRKNWRNSKLKVHQQWGRCSVEGHHHHHH	not soluble
MIKASLVFFAFLALASGRRHHYDYYDCEPERGPRGREGREGPRGAQGAPGPNGTGFFWPGTCEQSDCPDGWISVNRKINNDVEKKWCINMFWNQATNDLYKTSEKVCNSYGGVMTGFKDKGEFISVFALLKNRFPNIKPVSQVMIGARRLETCASISNFGNCTITKGTKWTDLVMSIDSFFNELQQSARFSPLKKCIVANPTNLKLYVANCNVLESDYPQDLFMCGRFAPCKK	not soluble
MGSDKIHHHHHHMEIKETYDFSSIVDLWNKNIGTVYPMNLELFKQNYINDRQRKKIMGAFNGEILIGFVIYKQWTYKSGSLKPNHKIGYINSIIVDINFRHQGIGTKLLDAAEEELINSGVKILRCGSDTYHFFPGIPLECLPSEEFFLVRGYKMQDYFYDLIGDVSKVDFKKPSIKDGFKVNVMKPEDRKGLFEFLEKSFSGRWLEEFIEFFQVGMKERDIVLIKYKTSVIGFSHIYDNKSSFIGPPIYWKALLGHNYGGLGPIGIDKTYRKQGLGRLLLYESLQILKKREVKKMVIDWTEKDIINFYGRFNFMPWKAYRKATKEVKDGKG	not soluble
MREVEPLAERLRPRSLDEVLGQPHLTGPQGLLRRMLEAGRLSSMVLFGPPGTGKTTLARLLAEGVGRPFLRLSAVEAGLKEVRQAVEEARAKGGLVLFLDEVHRFNKAQQDALLPHLESGLLTLIGATAENPAFALVPALRSRLRFFPLRPLEEADLLALLRRALEDPRGLPGTPYEEEALRVLAQAAGGDARFALNTLELAASFGRVDLKSVREALGAERFGMDREGDRFYDLVSALHKSLRGSHVDAALYYLARLLQGGADPRYLARRLIRVAVEDVGLADPLALRLAVAAKEAYEALGSPEGELALVEAAVYLALAPKSNSLYAAWKKAQEAAKAHPEAEVPLNLRNAPTGLARALGHGEGYAYYHEDKEGSFAQRYLPEGLEGLTLFEATGEGWEERVRERLKALRERFQTARRRRG	soluble
MAETSNASAEPELIYFEVTSNEERFVHMVFQMASNTTNQFLIFVKDDETCFRAQRALYSSGEMTQCFLKNMNKDAFKKRKQELKNGTAKVWIADRSVIGKLVDCFSKELTVFLYDGISNDFPKQAVGKCHSVISLKQSRHTAVNTSDGLFEQVFHICQLYNATFTSPIKDWMASSKNGDLPENADTMKLVIARPSELLNSASTLRSFNDIVAKDPRILNLMEAFKVIENKARIDKDDNSRGMLYLCVKMRSELDGQYVTKNKADQFYRVEFNTLKNMKNKSEFLRKMCPS	not soluble
MRMNSQWGFKMKILIMGFEYLPVKVGGLAEALTSIAEALASLGHEVLVFTPSHGRFQGSEIGIIKAFGGKVAIKVHLEENGNLRIYRIGGGLLDHQDVYGPGWEGLIRKTVIFGKASVLLLNELLKSEDLPDVLHFHDWHTVFAGALIKKYFRIPAVFTIHRLNKSKIPAFYFHEAGLPELAPYPDLDPEHTGGYIADIVTTVSRGYLLDEWDFFRNFNGKVTYVFNGIDCSFWNENYLKGSRKERRSSILAKFGMSDGITFMFIGRFDRRQKGVDTLLRAIELLSERPEFKEMRFIIIGMGDPELENWARELEKRYDNVRVLTEMLSREFVRELYGSVDFVIIPSYFEPFGLVSLEAMCLGAIPIASSVGGLRDVIVSIDEDHVDGTGLLVKPGDPWDLANAILRMHSIAMDNEFVEKLRDNCKKRAKSFSWENSAKRYLRAYKGNIDRIFDFAMLEHHHHHH	not soluble
SPSKVQELSVYEINELDRHSPKILKNAFSLMFGLGDLVPFTNKLYTGDLKKRVGITAGLCVVIEHVPEKKGERFEATYSFYFGDYGHLSVQGPYLTYEDSFLAITGGAGIFEGAYGQVKLQQLVYPTKLFYTFYLKGLANDLPLELTGTPVPPSKDIEPAPEAKALEPSGVISNYTN	not soluble
